Results on four substances are retold here after US6417168.

Experiment [1] deals with human epidermal growth factor receptor (EGFR), full-length wild type (human) (UniProt P00533). In words: cell-based or functional assay.
Experiment [2] concerns the target ΔEGFR, extracellular-deleted mutant human EGFR (EGFRvIII) (human) (UniProt P00533). Put plainly: cell-based or functional assay.

Substance “N691stop (truncated rat cellular p185, stop codon for Thr^691) (from UniProt P06494 23-690) (receptor)” gave an EGF-induced down-regulation of cell surface EGFR (flow cytometry), maximum reduction in experiment [1] of 20 to 25%.

As to “N757 (Nneu K757M, ATP-binding mutant of rat cellular p185) (from UniProt P06494 23-1257) (receptor)”, the EGF-induced down-regulation of cell surface EGFR (flow cytometry), maximum reduction in experiment [1] was in the range of 20 to 25%.

Regarding “T691stop neu (truncated rat oncogenic p185neu, stop codon at amino acid 691, val→glu at amino acid 664) (from UniProt P06494 23-687) (receptor)”, in experiment [1], the apoptosis of U87/T691 cells, serum deprivation combined with radiation (DAPI) was determined as 33% and the inhibition of anchorage-independent growth in U87MG parental cells lacking ΔEGFR is 75.2%. In experiment [2], the phosphorylation content of immunoprecipitated p155ΔEGFR monomers (scanning densitometry, PY-20 blot) was found to be 33.7%; the soft agar growth of U87MG.ΔEGFR/T691s cells, reduction compared to U87MG.ΔEGFR cells was 45%; the soft agar growth of U87MG.ΔEGFR/T691s cells, reduction compared to parental U87MG cells was determined as 41.3%.

Regarding “wildtype cellular rat p185 (Nneu) (from UniProt P06494 23-1257) (receptor)”, the co-downregulation of cellular p185 with EGFR upon EGF treatment (flow cytometry, M1 cells) in experiment [1] worked out at 20%.
